Experimental findings from publication PMC10720262 (2023) are described below.

B1: Ky224 (antibody, V domains shown)
VH: QVQLVESGGGVVQPGRSLRLSCAASGFTFSVYGMHWVRQAPGKGLEWVAVIWYDGSNKIYADSVKGRFTISRDNSKNTLYLQMDSLSAADTAVYYCAKIGSSSFDYWGQGTLVIVSS
VL: DIVMTQTPLSSPVTLGQPASISCRSSQSLVHSNGITYLSWLQQRPGQPPRLLLYEISNRFSGVPDRFSGSGTGTDFTLKISRVEAEDVGVYYCMQTTQFPITFGQGTRLEIK
modifications: peptides N-terminally acetylated and C-terminally amidated
B2: Ky315 (antibody, V domains shown)
VH: QVQLVESGGGVVQPGRSLRLSCAASGFTLSNYGVHWVRQAPGTGLEWVALIWYDGSNKFYADSVKGRFTISRDNSMDIVYLQMNNLRAEDTALYYCVRPGIAAAGSNYYAMDVWGQGTAVTVSS
VL: EIVMTQSPATLSMSPGERATLSCRASQSVGSDLAWFQQKPGQAPRLLIYGAFTRATGIPARFSGSGSGSEFTLTISSLQSEDFAVYYCQQYNRWWTFGQGTKVEMK
modifications: peptides N-terminally acetylated and C-terminally amidated
B3: CL-512871 (antibody, V domains shown)
VH: QVLLVESGGGVVQPGRSLRLSCAASGFTFSNYGMHWVRQAPGKGLEWVALIRYDGINKFYADSVKGRFTISRDNSENTLYMQINSLRAEDTAMYYCAKAYNTSSDYYYGMDVWGQGTTVTVSS
VL: DIQMTQSPSTLSASVGDRVTITCRASQSISTWLAWYQQKPGKAPKLLIYKASRLESGVPSRFSGSGSGTEFTLTISSLQPDDLATYYCQQFNSYWTFGQGTKVEIR
modifications: peptides N-terminally acetylated and C-terminally amidated
B4: CL-532151 (antibody, V domains shown)
VH: QVQLVESGGGVVQPGGSLRLSCAASGFTFSGSGMHWVRHAPGKGLEWVAIIWYDGSNKFYADSVKGRFTISRDNSRNTLYLQMNSLRAEDTAVYYCARAYVSGNYGDKYGMDVWGQGTTVTVSS
VL: DIQMTQSPSTLSASVGDRVTITCRASQSISNWLAWFQQKPGKAPKLLIYKASSLESGVPSRFSGSGSGTEFTLTINSLQPDDFATYFCQQYNYYWTFGQGTKVEIK
modifications: peptides N-terminally acetylated and C-terminally amidated
B5: CL-513809 (antibody, V domains shown)
VH: QVQLVESGGGVVQPGRSLRLSCAASGFIFSNYGMYWVRQTPDKGLEWVALIWYDGNNKFYSDSVKGRFTVSRDNSKNTLYLQMNSLRDEDTALYYCARAGYFYGSGSSLDKWGQGTLVTVSS
VL: DIQMTQSPSTLSASVGDRVSITCRASQSISIWLAWYQQKPGKAPKLLIYKASSLESGVPSRFSGSGSGTEFTLTISSLQPDDFATYYCQQYNSYWTFGQGTKVEIK
modifications: peptides N-terminally acetylated and C-terminally amidated
B6: CL-449869 (antibody, V domains shown)
VH: QVQLVESGGGAVQPGRSLRLSCAASGFTFSYNGMHWVRQAPGKGLEWVAIIWYDGSNKFYADSVKGRFTISRDNSKDTLYLEMNSLRAEDTAIYYCARAWNYDDKKYSMDVWGQGTTVTVSS
VL: DIQMTQSPSTLSASVGDRVTITCRASQSISSWLAWYQQKPGKAPKLLIYKASSLESGVPSRFSGSGSGTEFTLTISSLQPDDFATYYCQQYNYFWTFGQGTKVEIR
modifications: peptides N-terminally acetylated and C-terminally amidated
B7: CL-444691 (antibody, V domains shown)
VH: QVQLVESGGGVVQPGRSLRLSCAASGFTFSNYGMHWVRQAPGKGLEWVAVIWYDGSNKFYADSVKGRFTISRDNSKNTLYLQMNSLRAEDTAVYYCARDGGYNKNSGSYGWFDPWGQGTLVTVSS
VL: DIQMTQSPSTLSASVGDRVTITCRASQSVSTWLAWYQQKPGKAPKLLIYKASSLESGVPSRFSGSGSGTEFTLTISSLQPDDFATYYCQQYNSYFTFGQGTRLEIK
modifications: peptides N-terminally acetylated and C-terminally amidated
B8: CL-510418 (antibody, V domains shown)
VH: QVQLVESGGGVVQPGQSLRLSCEASGFTFSNYGMHWVRQAPVKGLEWVAIIWFDGSYKYYADSVKGRFTVSRDNSKNTLYLQMDSLRAEDTAVYYCARARKGQRSDYYGSETSYTFDNWGQGTLVTVSS
VL: DIQMTQSPSTLSASVGDRVTITCRASQSINSWLAWYQQKPGKAPKFLIYKASILESGIPSRFSGSGSGTEFTLTISSLQPDDFATYYCQQYNSYWTFGQGTKVEIK
modifications: peptides N-terminally acetylated and C-terminally amidated
B9: Ky15.2 (antibody, V domains shown)
VH: QVLLVESGGGVVQPGTSLRLSCVASGFSFSTYGMHWVRQSPGKGLEWVAIIWYDGGNKFYADSVQGRFTVSRDNSKNTLYLQMNSLRAEDTAVYYCAKAYRTSLDKKYGMDVWGQGTTVTVSS
VL: DIQMTQSPSTLSASVGDRVTITCRASQSIASWLAWYQQKPGKAPKLLIYKASSLESGVPSRFSGSGSGTEFTLTISSLHPDDFATYFCQQFTSYWTFGQGTKVEIK
modifications: peptides N-terminally acetylated and C-terminally amidated
B10: CL-514174 (antibody, V domains shown)
VH: QVQLVESGGGVVQPGRSLRLSCVASGFTFSGSGMHWVRQSPGKGLEWVAIIWYDGSNKFYADSVQGRFTISRDNSKNTLYLQMNSLRVEDTGVYYCARAYLSGNYGDKYGMDVWGQGTTVTVSS
VL: DIQMTQSPSTLSASVGDRVTITCRASQSISSWLAWFQQKPGKAPKLLIYKASSLESGVPSRFSGSGSGTEFTLTINSLQPDDFATYFCQQYNYYWTFGQGTKVEIK
modifications: peptides N-terminally acetylated and C-terminally amidated
B11: CL-438096 (antibody, V domains shown)
VH: QVVLVESGGGVVQPGRSLRLSCEASGFIFSSRGMHWVRQTPGKGLEWVAIIWYDGSNKFYADSVKGRFTISRDNSKNTLYLQMNSLRAEDTAVYYCARSYRTSLDKKYGMDVWGQGTTVTVSS
VL: DIQMTQSPSTLSASVGDRVTITCRASQSISSWLAWYQQKPGKAPKLLIYKASSLESGVPSRFSGSGSGTEFTLTISSLHPDDFATYFCQQYNSYWTFGQGTKVEIK
modifications: peptides N-terminally acetylated and C-terminally amidated
B12: CL-510020 (antibody, V domains shown)
VH: QVQLVESGGGVVQPGRSLRLSCAASGFTFSSFGMYWVRQAPGKGLEWVALIWYDGSNQYYADSVKGRFTISRDNSKNTLYLQMNSLRAEDTAVYYCARAGYFYGSGSPLDYWGQGTLVTVPS
VL: DIQMTQSPSTLSASVGDGVTITCRASQSISSWLAWYQQKPGKAPKLLIYMASSLESGVPSRFSGSGSGTEFTLTISSLQPDDFATYYCQQYYNYWTFGQGTKVEIK
modifications: peptides N-terminally acetylated and C-terminally amidated
B13: CL-510373 (antibody, V domains shown)
VH: QVQLVESGGGVVQPGRSLKLSCAASGFTFSSYGMHWVRQAPGRGLEWVSIIWYDGSNKFYSDSVQGRFTISRDDSKNTLYLQMNSLRAEDTAMYYCAMVANYTISSGAFDIWGHGTMVTVSS
VL: DIQMTQSPSTLSASVGDRVTITCRASQSISNWLAWYQQKSGKAPKLLIYKASSLESGVPSRFSGSGSGTEFTLTISSLQPDDFATYFCQQYKTYWTFGQGTKVEIK
modifications: peptides N-terminally acetylated and C-terminally amidated
B14: CL-449007 (antibody, V domains shown)
VH: QVQVVESGGGVVQPGRSLRLSCAASGFTFSNYGMHWVRQAPGKGLEWVAIIWYDGSHKFYANSVKGRFTISRDNSKNTLFLQMNSLRAEDTAVYYCARVGNGNSDWTDAFDIWGQGTMVTVSS
VL: DIQMTQSPSTLSASVGDRVTITCRASQSINSWLAWYQQKPGKAPKLLIYKASSLESGVPSRFSGSGSGTEFTLTISSLQPDDFATYYCQQYNTYWTFGQGTKVEIK
modifications: peptides N-terminally acetylated and C-terminally amidated
B15: CL-444469 (antibody, V domains shown)
VH: QVQLVESGGGVVQPGRSLRVSCEVSGLTFSNYGMHWVRQAPGKRLEWVAIIWYDGSNKYYADSVKGRFTISRDNSKNTLYLQMNSLRAEDTAVYYCARSYGSGSRGDYYGMDVWGQGTTVTVSS
VL: DIQMTQSPSTLSASVGDRVTITCRASQSISSWLAWFQQKPGKAPKLLIYKASSLESGVPSRFSGSGSGTEFTLTISSLQPDDFATYYCQQYYSYWTFGQGTKVEIK
modifications: peptides N-terminally acetylated and C-terminally amidated
B16: CL-460406 (antibody, V domains shown)
VH: QIQLVESGGGVVQPGRSLRLSCAASGFTFSNSGMHWIRQAPGKGLEWVTIIWYDGSNKYYADSVKGRFTISRDNSKNTLYLQMNSLRAEDTAIYYCARAYSSSSDDYYGMDVWGQGTTVTVSS
VL: DIQMTQSPSTLSASVGDRVTITCRASQSISSWLAWYQQKPGKAPKLLIYKASSLESGVPSRFSGSGSGTDFTLTISSLQPDDFATYYCQQFYNYWTFGQGTKVEIT
modifications: peptides N-terminally acetylated and C-terminally amidated
B17: CL-511905 (antibody, V domains shown)
VH: QVQLVESGGGVVQPGRSLRLSCAASGFTFSGSGMHWVRQAPGRGLEWVAIIWYDGSHKYYVDSVQGRFIISRDNSKNTLYLEMNSLRVEDTAVYYCVRAYPSGSSNDKYGMDVWGQGTTVTVSS
VL: not shown
modifications: peptides N-terminally acetylated and C-terminally amidated
B18: CL-508731 (antibody, V domains shown)
VH: QVQLVESGGGVVQPGRSLRLSCVASGFTFSNNGMHWVRQAPGKGLEWVAIIWHDGSNKFYAESVRGRFTISRDNSNNTLYLQMNSLRAEDTAVYYCARDRMFGSGSWNYFDPWGQGTLVTVSS
VL: EIVLTQSPATLSLSPGERATLSCRASQSISTYLAWYQQKPGQAPRLLIYDASNRATGIPARFSGSGSGTDFTLTISSLEPEDFAVYYCQQRSYWWTFGQGTKVEIK
modifications: peptides N-terminally acetylated and C-terminally amidated
B19: CL-509993 (antibody, V domains shown)
VH: QVQLVESGGGVVQPGRSLRLSCVASGFTFSNNGMHWVRQAPGKGLEWVAIIWYDGSNKYYADSVKGRFTISRDNSNNTLYLQMNSLRAEDTAVYYCARDRMFGSGTWNYFDPWGQGTLVTVSS
VL: EIVLTQSPATLSLSPGERATLSCRASQSVTTYLAWYQQKPGQAPRLLIYDASNRATGIPARFSGSGSGTDFTLTISSLEPEDFAVYYCQQRSNWWTFGQGTKVEIK
modifications: peptides N-terminally acetylated and C-terminally amidated
B20: CL-437899 (antibody, V domains shown)
VH: QEQLVESGGGVVQPGRSLRLSCEVSGFTFSNHGLHWVRQAPGKGLEWVAIIWYDGSNKFYAESVKGRFTISRDNSKNRMYLEMNSLRVEDSAVYYCVRAYSRSSSDYKYGMDVWGQGTTVTVSS
VL: DIQMTQSPSTLSASVGDRVIITCRASQSISSWLAWYQQRPGKAPELLIYKASSLETGVPSRFSGSGSGTEFTLTISSLQPDDFATYFCQQYSSYWTFGQGTKVEIK
modifications: peptides N-terminally acetylated and C-terminally amidated
B21: CL-513083 (antibody, V domains shown)
VH: QVQLVESGGGVVQPGRSLRLSCAASGFTFSNYGMHWVRQAPGRGLEWVAIIWYDGSNKYYEDSVKGRFTISRDNSKNTLYLQMNSLRAEDTAVYYCARAQWLDQRHYHYTMDVWGQGTTVTVSS
VL: not shown
modifications: peptides N-terminally acetylated and C-terminally amidated
B22: CL-509930 (antibody, V domains shown)
VH: QVQLVESGGGVVQPGRSLRLSCAASGFTFSSYGMHWVRQAPGKGLEWVAIIWHDGSNKYYADSVKGRFTISRDNSKNTLYLQMNSLRAEDTAVYYCARDYSSFYFDYWGQGTLVTVSS
VL: not shown
modifications: peptides N-terminally acetylated and C-terminally amidated

For this test, the target named is PfCSP full length (Plasmodium falciparum (isolate NF54), UniProt P19597). Put plainly: ELISA AUC. For orientation: An ELISA detects its analyte on a solid surface through an enzyme-linked reagent.
PfCSP full length, sequence (P19597 20-375): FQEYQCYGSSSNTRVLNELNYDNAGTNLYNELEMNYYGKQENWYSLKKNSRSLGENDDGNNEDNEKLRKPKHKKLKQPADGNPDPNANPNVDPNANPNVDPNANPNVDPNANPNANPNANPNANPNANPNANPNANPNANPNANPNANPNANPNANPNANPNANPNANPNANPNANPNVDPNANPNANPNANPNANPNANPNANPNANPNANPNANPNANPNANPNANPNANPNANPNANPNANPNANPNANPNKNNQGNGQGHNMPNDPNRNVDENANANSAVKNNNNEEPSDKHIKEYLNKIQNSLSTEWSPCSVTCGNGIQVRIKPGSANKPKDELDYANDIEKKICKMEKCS
Take B1: the binding score stood at 2.2.
The result for B2 reads 2.7; that for B3, 2.21; that for B4, 2.53.
In the case of B5, the binding score is 2.34.
The result for B6 reads 2.2.
To B7 belongs 2.3; to B8, 2.46; to B9, 2.4.
B10: the binding score came to 2.12.
The result for B11 reads 2.6; that for B12, 2.45; that for B13, 2.37.
Consider B14, for which the binding score worked out at 2.4.
Take B15: the binding score amounted to 2.4.
Turning to B16, the binding score was 2.3.
For B17, the binding score was found to be 2.61.
The result for B18 reads 2.31; that for B19, 2.15.
With B20, the binding score came to 2.4.
To B21 belongs 2.24; to B22, 1.99.
